The target in experiment [1] is ErbB2 (UniProt P04626). In words: Phospho(Tyr1248)/Total ErbB2 binding assay, MSD whole cell lysate kit, SK-BR-3 cells treated 2 h.
Experiment [2] deals with ErbB2 (UniProt P04626). In words: Phospho(Tyr1248)/Total ErbB2 binding assay, MSD whole cell lysate kit, BT-474 cells treated 2 h.
Experiment [3] deals with A375 human melanoma cells. In words: A375 melanoma xenograft model: tumor volume change and survival. The conditions noted are these: mice with tumors larger than 2000 mm^3 euthanized.
Protocol: A375 human melanoma cells were subcutaneously injected into mice to generate xenograft models. The tumors were allowed to grow to about 600 mm^3 before treatment according to the following protocols. Nine mice were treated for each protocol, except as noted.
Cohort 1—Vehicle control (“Vehicle”). […] The vehicle control was administered to each mouse at a dosage of 120 μL/mouse on the second day of the experiment.
Cohort 4—BEV12 and ABX30 on same day (“BEV12+ABX30—Same Day”).
P-values were determined using an un-paired t-test.
Survival time of the treated mice was also recoded. Mice with tumors larger than 2000 mm^3 were euthanized.

What is called IC50 is the concentration that gives 50% inhibition.

As to “Nanoparticles with embedded trastuzumab, paclitaxel and albumin (Example 12, Batch 1, paclitaxel:trastuzumab 5.6:1) (from UniProt P02768 25-609)”, the concentration for half-maximal inhibition (IC50) worked out at 0.357 nM with ErbB2 [1] and 0.35 nM in the experiment with ErbB2 [2].

Turning to “Click conjugate of trastuzumab and nab-paclitaxel particles (Example 26, paclitaxel:trastuzumab 51:1) (from UniProt P02768 25-609)”, the IC50 was 0.59 nM with ErbB2 [1] and 0.702 nM with ErbB2 [2]. For “Nanoparticles with embedded trastuzumab, paclitaxel and albumin (Example 12, Batch 2, paclitaxel:trastuzumab 5.9:1) (from UniProt P02768 25-609)” the same measures were 0.361 nM and 0.349 nM. Take “Thiolated conjugate of trastuzumab and nab-paclitaxel particles (Example 33, paclitaxel:trastuzumab 12:1) (from UniProt P02768 25-609)”: the half-inhibitory concentration (IC50) with ErbB2 [1] was determined as 0.977 nM; in the experiment with ErbB2 [2] it was 0.216 nM. In the case of “Nanoparticles with embedded trastuzumab, paclitaxel and albumin, with free mAb (Example 20, paclitaxel:trastuzumab 10:1) (from UniProt P02768 25-609)”, the IC50 in the experiment with ErbB2 [1] was 0.409 nM; with ErbB2 [2], 0.524 nM. For “SM(PEG)6 conjugate of trastuzumab and isolated nab-paclitaxel particles (Example 23, paclitaxel:trastuzumab 92.5:1) (from UniProt P02768 25-609)” the same measures were 0.557 nM and 0.291 nM. With “Nanoparticles with embedded trastuzumab, paclitaxel and albumin (Example 12, Batch 3, paclitaxel:trastuzumab 6.7:1) (from UniProt P02768 25-609)”, the values for the concentration for half-maximal inhibition (IC50) with ErbB2 [1] and in the experiment with ErbB2 [2] were 0.37 nM and 0.456 nM, respectively.

Take “Nanoparticles with embedded trastuzumab, paclitaxel and albumin (Example 12, Batch 4, paclitaxel:trastuzumab 4.5:1) (from UniProt P02768 25-609)”: the results for the concentration for half-maximal inhibition (IC50) in the experiment with ErbB2 [1] and with ErbB2 [2] were 0.289 nM and 0.429 nM, respectively. “bevacizumab: antiangiogenic antibody that targets vascular endothelial growth factor A (VEGF-A)”: the “Median Survival” value in experiment [3] is 38 days. In the case of “SM(PEG)6 conjugate of trastuzumab and nab-paclitaxel particles with free mAb (Example 35, paclitaxel:trastuzumab 10:1) (from UniProt P02768 25-609)”, the values for the IC50 with ErbB2 [1] and in the experiment with ErbB2 [2] were 0.301 nM and 0.441 nM, respectively. For the substance “Thiolated conjugate of trastuzumab and nab-paclitaxel particles (Example 34, paclitaxel:trastuzumab 31:1) (from UniProt P02768 25-609)”, in the experiment with ErbB2 [1], the IC50 stood at 0.311 nM.
